Measurements: the supplement of paper PMC9233669
Fewer inactive variants are shown than the library holds.

Tests used:
biotinyl-Val-oxazolone = assay: self-aminoacylation, catalytic enhancement (BVO) (fold over background); higher = more active; k-Seq, kA / k0A0; sequences stand for … in GGGAAUGGAUCCACAUCUACGAAUUC…UUCACUGCAGACUUGACGAAGCUG
How it was run: (§1)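 Mutagenized RNA pools with a 21-nt variable region (0.43 μM) reacted with each biotinyl-aminoacyl-oxazolone at 2–1250 μM. Reactions ran in 50 μL HEPES/NaCl/KCl/MgCl2/CaCl2 buffer with 5% acetonitrile, pH 6.9–7.0, for 90 minutes at room temperature. Streptavidin-captured RNA was quantified by triplicate qPCR and Illumina sequencing, and per-sequence fraction reacted was fit to a pseudo-first-order model with 1000 bootstraps. Catalytic enhancement is median kA divided by the uncatalyzed rate, the low-activity peak of a bimodal Gaussian fit.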

biotinyl-Leu-oxazolone = assay: self-aminoacylation, catalytic enhancement (BLO) (fold over background); higher = more active; k-Seq, kA / k0A0; sequences stand for … in GGGAAUGGAUCCACAUCUACGAAUUC…UUCACUGCAGACUUGACGAAGCUG
How it was run: as §1

biotinyl-Met-oxazolone = assay: self-aminoacylation, catalytic enhancement (BMO) (fold over background); higher = more active; k-Seq, kA / k0A0; sequences stand for … in GGGAAUGGAUCCACAUCUACGAAUUC…UUCACUGCAGACUUGACGAAGCUG
How it was run: as §1

biotinyl-Ile-oxazolone = assay: self-aminoacylation, catalytic enhancement (BIO) (fold over background); higher = more active; k-Seq, kA / k0A0; sequences stand for … in GGGAAUGGAUCCACAUCUACGAAUUC…UUCACUGCAGACUUGACGAAGCUG
How it was run: as §1

biotinyl-Phe-oxazolone = assay: self-aminoacylation, catalytic enhancement (BFO) (fold over background); higher = more active; k-Seq, kA / k0A0; sequences stand for … in GGGAAUGGAUCCACAUCUACGAAUUC…UUCACUGCAGACUUGACGAAGCUG
How it was run: as §1

biotinyl-Trp-oxazolone = assay: self-aminoacylation, catalytic enhancement (BWO) (fold over background); higher = more active; k-Seq, kA / k0A0; sequences stand for … in GGGAAUGGAUCCACAUCUACGAAUUC…UUCACUGCAGACUUGACGAAGCUG
How it was run: as §1

Sequence | self-aminoacylation (biotinyl-Val-oxazolone) | self-aminoacylation (biotinyl-Leu-oxazolone) | self-aminoacylation (biotinyl-Met-oxazolone) | self-aminoacylation (biotinyl-Ile-oxazolone) | self-aminoacylation (biotinyl-Phe-oxazolone) | self-aminoacylation (biotinyl-Trp-oxazolone)
AUUACUCUGGUCAUAGAGUGA [Fam2.1 aminoacylation ribozyme variant] | 2.79 | 5.04 | 4.99 | 3.03 | 20.8 | 6.05
AUUACUCUGGUCAUCGAGAGA [Fam2.1 aminoacylation ribozyme variant] | 0.908 | 0.713 | 0.867 | 0.907 | 1.03 | 0.523
AUUACUCUGGUCAUCGAGUCA [Fam2.1 aminoacylation ribozyme variant] | 0.978 | 0.928 | 0.944 | 1.09 | 1.04 | 0.628
AUUACUUUGGUCAUCGAGUGA [Fam2.1 aminoacylation ribozyme variant] | 3.57 | 7.1 | 6.07 | 3.55 | 25.8 | 8.06
AUUAGCCGGGUCAUCGAGUGA [Fam2.1 aminoacylation ribozyme variant] | 4.51 | 6.37 | 6.22 | 3.91 | 40.5 | 7.69
AUUAGCCUGGCCAUCGAGUGA [Fam2.1 aminoacylation ribozyme variant] | 3.54 | 4.51 | 5.44 | 3.83 | 26.4 | 6.06
AUUAGCCUGGUCAGCGAGUGA [Fam2.1 aminoacylation ribozyme variant] | 3.39 | 5.47 | 3.65 | 3.09 | 9.96 | 4.85
AUUAGCCUGGUCAUCGAGUAA [Fam2.1 aminoacylation ribozyme variant] | 1.51 | 1.57 | 1.31 | 1.52 | 1.85 | 0.949
AUUAGCCUGGUCAUCGAGUUA [Fam2.1 aminoacylation ribozyme variant] | 1.24 | 1.27 | 1.41 | 1.36 | 1.15 | 0.867
AUUAGCCUGGUCAUUGAGUGA [Fam2.1 aminoacylation ribozyme variant] | 5.01 | 10.3 | 9.25 | 4.89 | 62.6 | 12.3
AUUAGCCUGGUCUUCGAGUGA [Fam2.1 aminoacylation ribozyme variant] | 3.28 | 5.63 | 5.53 | 3.5 | 35.9 | 6.87
AUUAGCCUGGUUAUCGAGUGA [Fam2.1 aminoacylation ribozyme variant] | 5.37 | 12.2 | 11.3 | 5.67 | 74.4 | 13.7
AUUAGCGUGGUCAUCGAGUGA [Fam2.1 aminoacylation ribozyme variant] | 3.1 | 4.67 | 3.55 | 2.8 | 13.5 | 5
AUUAUCAUGGUCAUCGAGUGA [Fam2.1 aminoacylation ribozyme variant] | 3.44 | 6.75 | 6.24 | 3.56 | 10.8 | 8.2
AUUAUCCAGGUCAUCGAGUGA [Fam2.1 aminoacylation ribozyme variant] | 3.41 | 6.32 | 6.52 | 3.13 | 30.3 | 7.93
AUUAUCCUGCUCAUCGAGUGA [Fam2.1 aminoacylation ribozyme variant] | 1.8 | 2.77 | 2.69 | 1.76 | 2.88 | 3.08
AUUAUCCUGGUCACCGAGUGA [Fam2.1 aminoacylation ribozyme variant] | 3.84 | 8.43 | 7.82 | 3.11 | 54 | 8.39
AUUAUCCUGGUCAUCGAGUGU [Fam2.1 aminoacylation ribozyme variant] | 4.73 | 10.2 | 11.1 | 4.25 | 15.3 | 9.45
AUUAUCCUGGUCCUCGAGUGA [Fam2.1 aminoacylation ribozyme variant] | 2.33 | 5.19 | 4.56 | 2.4 | 21.9 | 6.54
AUUAUCCUGGUCUUCGAGUGA [Fam2.1 aminoacylation ribozyme variant] | 2.93 | 5.95 | 5.8 | 3.26 | 37.6 | 7.67
AUUAUCCUGGUUAUCGAGUGA [Fam2.1 aminoacylation ribozyme variant] | 4.88 | 13.5 | 12.2 | 5.55 | 71.3 | 14.7
AUUAUGCUGGUCAUCGAGUGA [Fam2.1 aminoacylation ribozyme variant] | 2.69 | 4.22 | 4.1 | 3.15 | 14.9 | 5.2
AUUCAACUAGAUCAUCGGGUG [Fam2.2 aminoacylation ribozyme variant] | 1.77 | 2.53 | 2.44 | 1.82 | 9.72 | 2.93
AUUCAACUAGCUCAUCGGGUG [Fam2.2 aminoacylation ribozyme variant] | 2.45 | 2 | 1.74 | 2.04 | 15 | 1.82
AUUCAACUAGGCCAUCGGGUG [Fam2.2 aminoacylation ribozyme variant] | 2.31 | 3.74 | 3.66 | 2.61 | 21.5 | 3.9
AUUCAACUAGGUCAUCAGGUG [Fam2.2 aminoacylation ribozyme variant] | 1.22 | 1.54 | 1.29 | 1.28 | 1.43 | 1.33

Sequence | self-aminoacylation (biotinyl-Val-oxazolone) | self-aminoacylation (biotinyl-Leu-oxazolone) | self-aminoacylation (biotinyl-Met-oxazolone) | self-aminoacylation (biotinyl-Ile-oxazolone) | self-aminoacylation (biotinyl-Phe-oxazolone) | self-aminoacylation (biotinyl-Trp-oxazolone)
AUUCAACUAGGUCAUCGGGCG [Fam2.2 aminoacylation ribozyme variant] | 2.36 | 3.67 | 2.73 | 2.48 | 5.35 | 2.46
AUUCAACUAGGUCAUCGGGGG [Fam2.2 aminoacylation ribozyme variant] | 1.66 | 1.86 | 1.59 | 1.75 | 0.813 | 2.56
AUUCAACUAGGUCAUCGGGUG [Fam2.2 aminoacylation ribozyme variant] | 3.47 | 7.19 | 5.65 | 3.6 | 40.6 | 5.46
AUUCAACUAGGUCAUGGGGUG [Fam2.2 aminoacylation ribozyme variant] | 3.16 | 5.63 | 4.28 | 2.96 | 27.7 | 4.16
AUUCAACUGGGUCAUCGGGUG [Fam2.2 aminoacylation ribozyme variant] | 3.96 | 7.37 | 5.25 | 3.89 | 39.5 | 5.74
AUUCAAGUAGGUCAUCGGGUG [Fam2.2 aminoacylation ribozyme variant] | 3.43 | 7.04 | 5.19 | 3.73 | 36.6 | 5.33
AUUCACAGAGGUCAUCGGGUG [Fam2.2 aminoacylation ribozyme variant] | 5.02 | 7.94 | 6.99 | 4.48 | 45.9 | 6.32
AUUCACAUAGGUAAUCGGGUG [Fam2.2 aminoacylation ribozyme variant] | 2.6 | 5.2 | 4.85 | 2.65 | 34 | 4.8
AUUCACAUAGGUCACCGGGUG [Fam2.2 aminoacylation ribozyme variant] | 4.6 | 7.78 | 5.7 | 4.8 | 42.3 | 5.42
AUUCACAUAGGUCAUCCGGUG [Fam2.2 aminoacylation ribozyme variant] | 5.53 | 9.85 | 7.79 | 5.32 | 55.9 | 7.74
AUUCACAUAGGUCAUCGCGUG [Fam2.2 aminoacylation ribozyme variant] | 7.84 | 17.6 | 14 | 7.23 | 108 | 12.1
AUUCACAUAGGUCAUCGGGUC [Fam2.2 aminoacylation ribozyme variant] | 1.65 | 1.34 | 1.39 | 1.51 | 0.659 | 1.49
AUUCACAUAGGUCAUCGGGUU [Fam2.2 aminoacylation ribozyme variant] | 1.76 | 2.22 | 2.13 | 1.9 | 8.48 | 1.97
AUUCACAUAGGUCAUCGUGUG [Fam2.2 aminoacylation ribozyme variant] | 0.841 | 0.942 | 0.835 | 0.867 | 2.09 | 0.867
AUUCACAUAGGUCCUCGGGUG [Fam2.2 aminoacylation ribozyme variant] | 4.71 | 9.43 | 7.55 | 4.33 | 51.3 | 7.63
AUUCACAUAGGUUAUCGGGUG [Fam2.2 aminoacylation ribozyme variant] | 3.67 | 6.69 | 5.32 | 3.23 | 40.2 | 5.37
AUUCACCAACGUCAUCGGGUG [Fam2.2 aminoacylation ribozyme variant] | 5.26 | 11.8 | 8.41 | 5.28 | 74 | 7.38
AUUCACCAAGGUCAUCAGGUG [Fam2.2 aminoacylation ribozyme variant] | 1.37 | 2.25 | 2.1 | 1.6 | 3.44 | 1.79
AUUCACCAAGGUCAUCUGGUG [Fam2.2 aminoacylation ribozyme variant] | 2.29 | 5.5 | 3.53 | 2.38 | 28 | 3.52
AUUCACCAAGGUCCUCGGGUG [Fam2.2 aminoacylation ribozyme variant] | 5.39 | 11 | 8.8 | 4.66 | 76.6 | 8.35
AUUCACCAUGGUCAUCGGGUG [Fam2.2 aminoacylation ribozyme variant] | 6.37 | 15.6 | 10.3 | 6.21 | 69.7 | 10.5
AUUCACCCAGGACAUCGGGUG [Fam2.2 aminoacylation ribozyme variant] | 3.27 | 2.83 | 2.8 | 2.97 | 30.2 | 3.3
AUUCACCCAGGUCAUCAGGUG [Fam2.2 aminoacylation ribozyme variant] | 1.01 | 1.08 | 1 | 0.991 | 0.632 | 0.804
AUUCACCCAGGUCAUCGGGAG [Fam2.2 aminoacylation ribozyme variant] | 1.48 | 1.28 | 1.28 | 1.22 | 0.732 | 1.47
AUUCACCCAGGUCAUCGGGUA [Fam2.2 aminoacylation ribozyme variant] | 2.27 | 2.76 | 2.51 | 2.25 | 12.7 | 2.93
